Results as given in the nanobody polyreactivity screen of Harvey et al. (2022).

Experiment: yeast display, Sf9 membrane polyspecificity reagent, FACS + sequencing; frameworks hold sequencing errors
Summary of the method: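 Galactose induction of a Saccharomyces cerevisiae BJ5465 synthetic nanobody display library ran 36–48 hours. The cells were then stained for 1 hour at 4 °C with 10% biotinylated, detergent-solubilized Sf9 membrane reagent, pulled down on streptavidin microbeads and FACS-sorted into low and high (top ~1%) gates on expression and reagent-binding fluorescence. Labels for polyreactivity follow the gate of origin.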

Sequence | polyreactivity (PSR sort gate)
QVQLVESGGGLVQAGGSLRLSCAASGRIFVFYVMGWYRQAPGKERELVAAITRTGGSTYYADSVKGRFTISRDNAKNTVYLQMNSLKPEDTAVYYCATRYTRLRHFDYWGQGTQVTVSS | low polyreactivity
QVQLVESGGGLVQAGGSLRLSCAASGITFSYYAMGWYRQAPGKERELVAASTSGGSTKYADSVKGRFTISRDNAKNTVYFQMNSLKPEDTAVYYCAVRIRRSHDYDYWGQGPQVTVSS | low polyreactivity
QVQLVESGGGLVQAGGSLRLSCAASGNIFLYYAMGWYRQAPGKERELVADIDSSGASTYYADSVKGRFTMSRDNAKNTVYLQMNSLKPEDTAVYYCAAEFHWWYAGYDYGYWGQGTQVTVSS | low polyreactivity
QVQLVESAGGLVQAGGSLRLSCAASGRIFSTYAMGWYRQAPGKERELVAAISWRGSSTYYADSVKGRFTISRDHAKNTVYLQMNSLKPEDTAVYYCNADKANRYDWGQGTQVTVSS | high polyreactivity
QVQLVESGGGLVQAGGSLRISCAASGSIFATYAMGWYRQAPGKERELVAAISWSSGSTYYADSVKGRFTISRDNAKNTVYLQMNSLNPEDTAVYYCNKDWLAYDSLRVTSTIAFDYWGQGSQVTVSS | low polyreactivity
QVQLVESGGGLVQGGGSLRLSCAASGSIFYPYAMGWYRQAPGKERELVARITSSTGSTYYADSVKGRCTISRATAKNTVYLQMTSLKPEDTAVYYCNARRQRNKSYNYWGQGTQVTVSS | high polyreactivity
QGQLVESWGGLVQAGGSHRLSCAASGRIFVYYAMGWYRQAPGKERELVAGMTGGGNTYYAYSVKVLFTISRDNAKNTGYLQKNSLKPEDTAVYYCAADPIRYRSRHKYGYWGQGTQVTVSS | low polyreactivity
QVQLVETGGGLVQAGGSLRLSCAASGSTFPAYTMGWYRQAPGKERELVAAITTGGRTYYADSVKGRFTISRDNAKNTVYLQMNSLKPEDTAVYYCAAKRYCYRSLPYYGIHGWGQGTQVTVSS | high polyreactivity
QVQLVESGGGLVQAGGSLRLSCAASGFIFLGNAMGWYRQAPGKERELVAAISSGGSTYSDSVKGRFTISRDNAKHTVYLQMNSLKPEDTAVYYCAADSFIPPYDHWGQGTQVTVSS | low polyreactivity
QVQLVESGGGLVQAGGSLRLSCAASGGTIAPYAMGWSRQAPGKERELVATISYSGTSTNYADSVKGRFTISRDNAKNTVYLQMNSLKPEDTAVYDCAKRYHQYRWRGWLWGFDYWGQGNQVTVSS | high polyreactivity
QVQLVESGGGLVQAGGSLRLSCAASGFTFRRNTMGWYRQEPGKERELVAAITQRGGSTYYADSVKGRFTISRDNAKNTVYLQMNSLKPEDTAVYYCAVDRHSYIYKYDYWGQGTQVTVSS | high polyreactivity
QVQLVESGGGLVQAGGSLRLSCAASGLIFSDNAMGWYRQARGKEREFVASISDSGTTTYYADSVKGRFTISRDNAKNTVYLQMNSLKPEDTAVYDCNARPGQSGARFGYWGQGTQVTVSS | high polyreactivity
QVQLVDSGGGIVQAGGSLRLRCAASGFTFDFYAMGWYRQAPGKERELVADISSSDGSTYADSVKGRFTISRDNAKNTVYLQMNSLNPEDTAVYYCAADYDNQYDFSLDDEYWGQVTQVTVSS | low polyreactivity
QVQLVESVVGLVQAGGSLRLSSAASGGTFDLYAMGWYRQAPGKERELVAAISRRGSSTYYADSVKGRFTISRDNAKNTVYLQMTSLKPEDTAVYFCNNRYYWHGINEYWGQGTQVTVSS | high polyreactivity
QVQLVESGGGLVQAGGSLRLSCAASGSIFRKYAMGWYRQAPGKERELVARISSGGRTYYADSVKGRFTISRDNAKNTVYLQMNSLKPEDTAVYFCAAAYYQRGRYSWGQGSQVTVSS | high polyreactivity
QVQLQESGGGLVQAGGSLLSCAASGTISWVDEMGWYRQAPGNERELVAGIAGGGNTNYADSVKGRFTISRDNAKNTVYLQMNSLDTAVYYCAVVGFGGGTHIYWGQGTQVTVSS | high polyreactivity

Sequence | polyreactivity (PSR sort gate)
QVQLVESGGGLVQARGSLRLSCAASGFIFSYYAMGWYRQAPGKERELVAAISSSGGTTYADSVKGRFTISRDNAKNTVYLQMNSLKPEDTAVYYCARVQYWFYKPMYYWGQGTQVTVSS | high polyreactivity
QVQLVESGGGLVQAGGSLRLICAASGYIFTYNAMGWYRQAPGKERELVAAISSGDGRTYYADSVKGRFTISRDNAKNTVYLQMNSLTPEDTAVYYCNATRVVYRQAYLYGYDYWGQGTQVTVSS | low polyreactivity
QVQLVESGGGLVQAGGSLRLSCAASGSTFYLNAMGWYRQAPGKERELVAAINGSGGSTYADSVKGRFTISRDNAKNTVYLQMKSLIQEDTAVYYCAADGSGYPGYSYPGKDYDDWGQGTQVNVSS | low polyreactivity
QVQLVESGGGLVQAGGSLRLSCAASGSIFSTNAMGWYRQAPWKERELVAGISSDDSTYADSVKGRFTISRDNAKNTVNLQMNSLKPEDTAVYNCAAEDNWYNVGYYYRGQGTQVTVSS | low polyreactivity
QVQLVESGGGLVQAGGSLRLSCAASGNIFTGNDMGWYRQAPGKERELVAAISKRGGSTFYADSVKGRFTISRDNAKNTVYLQMNSLKPEDTEGYYCNALRRGVRDPYGYWGQGTQVTVSS | high polyreactivity
QVQHVESGGGLVQAGGSLRLSCAASGSTITANAMGWYRQAPGKERELVPAISDTTGNTYYADSVMGRFTISRDNANNTVYLQMNSLKPEDTAVYYCAADLTSYYGGDYWGQGTQVTVSS | low polyreactivity
QVQLVESGGGIVQAGGSLRLSCAASVFTFLHNTMGWYRQAPGKERELVAAISIGGRTYYADSVKGRFTISRDIAKKTVYLQMNSLKPEDTAVYYCAKLSGGQSPGYDYWGQGTQVTVSS | high polyreactivity
QVQLVESGGGLVQAGGSLRLSCAASGITFYGYAMGWYRQAPGKERELVAAITSGGSTYYADSVKGRFTISRDNAKNTVYLQMNSLKPEDTAVYYCARYYWIRVGRYYRYEYWGQGTQVTVSS | low polyreactivity
QVQLVESGGGLVQAGGSLRLSCAASGFTFAGYAMGWNRQAPGKERELVAASNRGGSTYYADSVKGRFTSSRDNAKHTVYLQRNSLKPEDTAVYYCAKAQRFYGGRMGYWGQGTQVTVSS | low polyreactivity
QVQLVESGGGLVQAGGSLRLSCAASGRTFFWNDMGWYRPAPGKERELVAAITWSGGSTYYADSVKGRFTISRDNAKNTVYLQMNSLKPEDTAVYYCDAVVSDYVWRYEYWGQGTQVTVSS | low polyreactivity
QGQLVESGGGLVQAGGSLRLSCAASGRTFQYYAMGWYRQATGKERELVAAITTVGSTKYADSVKGRFTISRDNAKNTVYLQMNSVKPEDTAVYYCAAGYRTRSGHRVPYSDYSWGQGTQVTVSS | high polyreactivity
QVQLVESGGGLVQAGGSLRLSCAASGITFAVKAMGWSRQAPGKERELVAAISRSAGSTYYADSVKGRFTISRDNAKNTVYLQMNSLKPEDTAVYYCATALRYARSRNRFYYWGQGTQVTVST | high polyreactivity
QVQLVESGGGLVQAGGSLRISCDASGSIISRNAMGWYRQAPGKEREFVAAITRSGGSTSYADSVKGRFTISRDNAKNTVYLQMNSLKPEDTAVYYCAASYARSATAYYKYYDWGQGTQVTVSS | high polyreactivity
QVQLVESGGGLVQAGGSLRLSCAASGITFGRNTKGWYRQAPGKERELVAAIDSGGNTYADSVKGRFTISRDNAKNTVYLQMNSLKPEDTAVYYCAADSYPAYLGFVGFDYWVQGTQVTVSS | low polyreactivity
QVQLVESGGGLVQAGVSLRLSCAASGSTFTGTAMGWYIQAPGKERELVASINGSSGSTYYADSVKGRFTISRDNAKNTVYLQMNSLKPEDTAVYYCAKDSFLHFPRVGWVGLEYWGQGTQVTLSS | low polyreactivity
QVQLEESGGGLCQAGGSLRLSCAPSGSIFVSNAMVCYRQAPGKERELVAAITYNGGRTFYADSVKGRFTISRDNAKNTVYLQLNSLKPEDTAVYYFAADGSWHGYGYWGQGTQVTVSS | low polyreactivity
